Laboratory results reported in PMC3398911.

Experiments:
[1] = molecular target: GST-RhoC-43T (human) (UniProt P08134)
[2] = molecular target: GST-RhoC (wild type) (human) (UniProt P08134)

B1: GST-XPLN (full length) (enzyme)
chain: MVAKDYPFYLTVKRANCSLELPPASGPAKDAEEPSNKRVKPLSRVTSLANLIPPVKATPLKRFSQTLQRSISFRSESRPDILAPRPWSRNAAPSSTKRRDSKLWSETFDVCVNQMLTSKEIKRQEAIFELSQGEEDLIEDLKLAKKAYHDPMLKLSIMTEQELNQIFGTLDSLIPLHEELLSQLRDVRKPDGSTEHVGPILVGWLPCLSSYDSYCSNQVAAKALLDHKKQDHRVQDFLQRCLESPFSRKLDLWNFLDIPRSRLVKYPLLLREILRHTPNDNPDQQHLEEAINIIQGIVAEINTKTGESECRYYKERLLYLEEGQKDSLIDSSRVLCCHGELKNNRGVKLHVFLFQEVLVITRAVTHNEQLCYQLYRQPIPVKDLLLEDLQDGEVRLGGSLRGAFSNNERIKNFFRVSFKNGSQSQTHSLQANDTFNKQQWLNCIRQAKETVLCAAGQAGVLDSEGSFLNPTTGSRELQGETKLEQMDQSDSESDCSMDTSEVSLDCERMEQTDSSCGNSRHGESNV
XPLN-catalysed mant-nucleotide exchange in vitro, fold stimulation [1]: 1.4 fold
XPLN-catalysed mant-nucleotide exchange in vitro, fold stimulation [2]: 1.1 fold
